We go through 1 substance from article PMC12767022.

For the assay, the target named is MBP‐Spz, maltose‐binding protein‐tagged Spz (Drosophila melanogaster) (UniProt P48607).
UniProt P48607, sequence (P48607 26-326): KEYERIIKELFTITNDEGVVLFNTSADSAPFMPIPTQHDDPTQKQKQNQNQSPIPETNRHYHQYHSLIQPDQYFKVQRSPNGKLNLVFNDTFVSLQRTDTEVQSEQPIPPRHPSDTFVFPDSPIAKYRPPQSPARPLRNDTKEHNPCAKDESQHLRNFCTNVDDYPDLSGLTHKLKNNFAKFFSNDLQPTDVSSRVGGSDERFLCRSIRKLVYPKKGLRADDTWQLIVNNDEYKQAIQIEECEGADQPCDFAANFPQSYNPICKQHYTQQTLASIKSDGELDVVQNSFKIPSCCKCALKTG

As to “GST‐ETS1, glutathione S‐transferase‐tagged ETS1 (enzyme)”, the degradation of Spz by purified ETS1 (SDS‐PAGE band intensity, 0–4 h, 1 mM each CoCl2 and CaCl2): about half within 1 h, 80% after 4 h stood at 80%.
